Reference: patent US20100040611A1 (Merck Sharp & Dohme, published 2010)
Positions count from the first letter of the chain named. Where two headings read alike, the source gives them in different places.

Columns and labels:
Test in all cases: cell-based or functional assay
[1] = target: T1, recombinant human PCSK9, V5-, His-tagged (human, UniProt Q8NBP7 31-692, limits assumed)
[2] = target: T1, recombinant human PCSK9, V5-, His-tagged; remark: listed apart in the source
[3] = target: T1, recombinant human PCSK9, V5-, His-tagged; remark: listed apart in the source
[4] = target: T1, recombinant human PCSK9, V5-, His-tagged; remark: listed apart in the source
[5] = target: T1, recombinant human PCSK9, V5-, His-tagged; remark: listed apart in the source

T1 sequence (Q8NBP7 31-692 limits assumed): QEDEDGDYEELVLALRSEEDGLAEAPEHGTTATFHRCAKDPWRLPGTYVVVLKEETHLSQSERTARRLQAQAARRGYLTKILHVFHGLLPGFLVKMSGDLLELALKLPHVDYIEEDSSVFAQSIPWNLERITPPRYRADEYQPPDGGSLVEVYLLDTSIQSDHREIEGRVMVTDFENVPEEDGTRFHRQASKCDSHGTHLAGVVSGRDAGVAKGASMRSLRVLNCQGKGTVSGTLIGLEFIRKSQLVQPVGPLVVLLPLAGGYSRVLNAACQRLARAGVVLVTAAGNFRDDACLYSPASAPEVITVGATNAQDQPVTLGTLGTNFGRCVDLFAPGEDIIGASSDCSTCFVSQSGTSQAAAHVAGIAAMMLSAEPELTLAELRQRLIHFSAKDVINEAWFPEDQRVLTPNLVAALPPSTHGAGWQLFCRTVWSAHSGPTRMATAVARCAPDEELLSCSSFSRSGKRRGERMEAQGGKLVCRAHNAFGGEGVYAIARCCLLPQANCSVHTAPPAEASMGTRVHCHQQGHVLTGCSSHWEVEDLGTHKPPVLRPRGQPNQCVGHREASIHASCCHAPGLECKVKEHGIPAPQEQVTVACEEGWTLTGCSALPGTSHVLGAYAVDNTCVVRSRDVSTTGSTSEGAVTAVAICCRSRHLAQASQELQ

B1: 1CX1G08 (Fab, V domains shown)
VH: QVQLVESGGGLVQPGGSLRLSCAASGFTFSDYWVSWVRQAPGKGLEWVSFISYDGSSTYYADSVKGRFTISRDNSKNTLYLQMNSLRAEDTAVYYCARTYFEGVDVWGQGTLVTVSS
VL: DIELTQPPSVSVAPGQTARISCSGDNIGTYYVHWYQQKPGQAPVLVIYDDSNRPSGIPERFSGSNSGNTATLTISGTQAEDEADYYCGTWDNTSFNLVFGGGTKLTVLG
IC50: reversal of PCSK9-dependent loss of cellular diI-LDL uptake (Exopolar assay), Fab titrated against a fixed 25 µg/ml PCSK9 [1]: 267 nM

B2: 3CX2A06 (Fab, V domains shown)
VH: QVQLVQSGAEVKKPGESLKISCKGSGYSFSNFWIAWVRQMPGKGLEWMGIIDPSDSWTRYSPSFQGQVTISADKSISTAYLQWSSLKASDTAMYYCARGDGQDFDNWGQGTLVTVSS
VL: DIQMTQSPSSLSASVGDRVTITCRASQNINSYLNWYQQKPGKAPKLLIYAASSLQSGVPSRFSGSGSGTDFTLTISSLQPEDFAVYYCLQNYDLPNTFGQGTKVEIKR
IC50: reversal of PCSK9-dependent loss of cellular diI-LDL uptake (Exopolar assay), Fab titrated against a fixed 25 µg/ml PCSK9 [2]: 107 nM

B3: 3CX3D02 (Fab, V domains shown)
VH: QVQLVQSGAEVKKPGESLKISCKGSGYSFTNSWIGWVRQMPGKGLEWMGIIYPSDSYTIYSPSFQGQVTISADKSISTAYLQWSSLKASDTAMYYCARGGGYYYALMDVWAQGTLVTVSS
VL: B2 VL with N28T, N30S, S31T, Y32W, V85T, N91D, Y92S, D93S, N96L
IC50: reversal of PCSK9-dependent loss of cellular diI-LDL uptake (Exopolar assay), Fab titrated against a fixed 25 µg/ml PCSK9 [3]: 269 nM

B4: 3BX5C01 (Fab, V domains shown)
VH: QVQLVQSGAEVKKPGESLKISCKGSGYSFTSYGISWVRQMPGKGLEWMGMIDPSDSFTTYSPSFQGQVTISADKSISTAYLQWSSLKASDTAMYYCARGYYFTYALQPMDHWGQGTLVTVSS
VL: DIELTQPPSVSVAPGQTARISCSGDNLRDYIVHWYQQKPGQAPVLVIYDDSNRPSGIPERFSGSNSGNTATLTISGTQAEDEADYYCGFDNGGDIDVFGGGTKLTVLG
IC50: reversal of PCSK9-dependent loss of cellular diI-LDL uptake (Exopolar assay), Fab titrated against a fixed 25 µg/ml PCSK9 [4]: 1250 nM

B5: 3CX4B08 (Fab, V domains shown)
VH: QVQLVESGGGLVQPGGSLRLSCAASGFTFSNYTMNWVRQAPGKGLEWVSFISSSSSETYYADSVKGRFTISRDNSKNTLYLQMNSLRAEDTAVYYCARGYGDMVDLWGQGTLVTVSS
VL: DIELTQPPSVSVAPGQTARISCSGDSIPTYYVAWYQQKPGQAPVLVIYSDTDRPSGIPERFSGSNSGNTATLTISGTQAEDEADYYCQSFDNHGYHVFGGGTKLTVLG
IC50: reversal of PCSK9-dependent loss of cellular diI-LDL uptake (Exopolar assay), Fab titrated against a fixed 25 µg/ml PCSK9 [5]: 127 nM
